Results taken from patent US20240010704A1, “CHIMERIC SENSOR PROTEIN AND METHODS OF USE THEREOF” (Universitaet Leipzig, priority 2020, published 2024).
Changes are numbered by the printed parent chain. Each block holds one molecule with its values, some of them ahead of it.

Legend:
[1] = molecular target: T1, γ-secretase (Drosophila melanogaster, UniProt O02194); experiment: Luciferase reporter assay in S2 cells, pharmacological inhibition of γ-secretase activity by DAPT; assay type: cell-based; settings: for reporter activity without DAPT vs. with 10 μM DAPT: FIG. 8C
T1 construct: endogenous in cells; host or cells: Drosophila S2 cells
T1 sequence (O02194 whole entry): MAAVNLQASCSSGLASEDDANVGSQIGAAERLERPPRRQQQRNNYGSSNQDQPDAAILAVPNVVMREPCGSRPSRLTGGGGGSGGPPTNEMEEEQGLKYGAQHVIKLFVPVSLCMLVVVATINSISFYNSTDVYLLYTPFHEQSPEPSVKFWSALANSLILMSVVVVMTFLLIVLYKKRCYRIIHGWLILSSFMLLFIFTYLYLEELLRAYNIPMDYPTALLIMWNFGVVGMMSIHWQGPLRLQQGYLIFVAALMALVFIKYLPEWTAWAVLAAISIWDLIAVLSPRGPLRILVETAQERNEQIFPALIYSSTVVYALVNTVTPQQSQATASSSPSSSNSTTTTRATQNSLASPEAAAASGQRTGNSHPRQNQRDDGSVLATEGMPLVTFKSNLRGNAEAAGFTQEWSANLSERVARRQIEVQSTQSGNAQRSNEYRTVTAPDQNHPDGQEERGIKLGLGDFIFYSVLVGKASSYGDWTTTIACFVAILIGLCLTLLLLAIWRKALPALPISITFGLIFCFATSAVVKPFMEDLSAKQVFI
T1 sequence (Q9VC27 23-695 partner): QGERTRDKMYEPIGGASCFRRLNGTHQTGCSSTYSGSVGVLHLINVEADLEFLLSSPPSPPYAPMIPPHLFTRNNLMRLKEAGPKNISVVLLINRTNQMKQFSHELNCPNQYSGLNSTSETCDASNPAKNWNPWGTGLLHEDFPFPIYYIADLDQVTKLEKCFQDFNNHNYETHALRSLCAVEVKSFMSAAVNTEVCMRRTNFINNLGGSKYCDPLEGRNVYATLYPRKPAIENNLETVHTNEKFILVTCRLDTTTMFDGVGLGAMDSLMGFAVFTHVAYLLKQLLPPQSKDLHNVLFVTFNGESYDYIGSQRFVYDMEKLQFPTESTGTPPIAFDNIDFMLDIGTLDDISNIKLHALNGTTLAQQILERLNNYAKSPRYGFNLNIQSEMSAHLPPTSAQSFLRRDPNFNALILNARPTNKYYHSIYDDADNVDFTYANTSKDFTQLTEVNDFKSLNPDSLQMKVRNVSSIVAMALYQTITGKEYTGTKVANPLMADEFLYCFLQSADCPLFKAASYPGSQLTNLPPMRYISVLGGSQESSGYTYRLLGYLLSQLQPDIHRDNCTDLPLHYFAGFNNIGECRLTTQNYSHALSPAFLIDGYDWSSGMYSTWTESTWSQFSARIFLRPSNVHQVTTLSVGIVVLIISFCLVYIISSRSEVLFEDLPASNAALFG
T1 sequence (Q9VQG2 whole entry partner): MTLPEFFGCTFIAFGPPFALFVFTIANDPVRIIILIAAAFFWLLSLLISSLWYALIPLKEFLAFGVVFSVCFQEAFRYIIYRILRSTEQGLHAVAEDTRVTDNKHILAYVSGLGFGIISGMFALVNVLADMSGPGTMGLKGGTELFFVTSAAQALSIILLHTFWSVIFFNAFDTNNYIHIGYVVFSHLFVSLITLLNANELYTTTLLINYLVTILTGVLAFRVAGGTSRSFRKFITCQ
T1 sequence (Q86BE9 whole entry partner): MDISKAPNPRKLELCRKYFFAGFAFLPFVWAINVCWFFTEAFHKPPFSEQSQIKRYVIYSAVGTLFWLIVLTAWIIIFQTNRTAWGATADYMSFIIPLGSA
Description: (§1) For transfection, mini- or midi-prepped plasmid DNA (Qiagen) for each construct was adjusted to a stock concentration 100 ng/μl using a nanophotometer (Implen). For individual transfections a total amount of 200 ng DNA per 96-well plate well was used and always contained 30 ng of lexAop>FLuc2 (test construct reporter) and Act5.1Cp>RLuc (transfection control reporter), respectively. Test constructs (X-NRS-LexA) and TEV protease plasmids were added at 1:1 ratio (equimolarly adjusted to lexAop>FLuc2) to the DNA mixes; each DNA mix was supplemented with empty pBSK-SK+ vector (Stratagene) to 200 ng. S2 cells were cultured in Schneider's Drosophila medium (Invitrogen, Cat. no. 21720-024). Cultures were maintained in an air incubator at 25° C. S2 cells were split and plated into individual wells of a 96-well plate at a concentration of 5×10^5/well on day 0. 24 hours after plating (day 1), cells were transfected with Lipofectamine 2000 (Invitrogen, #11668019) with the suitable 1:1 plasmid/reagent mixture according to manufacturer's instructions and incubated for 48 hours. When induction of the metallothionein-promoter was required, CuSO4 stock medium was added in each well of the experiment to a final concentration of 0.5 mM CuSO4 24 hrs after transfection (day 2).
(§2) Cells were lysed on day 3 (48 hrs after transfection) and luciferase measurements with the Dual-Glo luciferase assay system (Promega) were performed according to the manufacturer's protocol. In brief, the supernatant was removed from each well by aspiration and cells were incubated with 200 μl passive lysis buffer on a shaker at room temperature for 30 min. Lysates were analyzed in 96-well plates with a Victor2 plate reader luminometer (PerkinElmer). Firefly and Renilla luciferase luminescence signals were collected for 10 s. Relative luciferase activities were calculated for each sample individually as principally described in Potter et al. (ref. 23) according to the following formula:
(F/R)Empty=(Σi=1^nFEmpty^i/REmpty^i)/n,
(§3) where n=number of control samples; F=Firefly luciferase luminescence signal; R=Renilla luciferase luminescence signal; Empty=lexAop>FLuc2+Ac5.1p>RLuc+BSK-SK+. Each condition was executed at least in triplicate, the average and SEM were determined for each condition, and statistical significance was evaluated using Student's t test. Plasmids used for transfection in S2 cells were: N^ECN-LexA, N^EGF-LexA, ChiN-Test, pChiN1, pChiN2, pChiN3, lexAop-FLuc2, Ac5.1-RLuc, secTEVp, intraTEVp, pBSK-SK+.

[2] = test system: lexAop-FLuc reporter in Drosophila Schneider 2 (S2) cells; experiment: Luciferase (lexAop-FLuc) reporter assay of NRS sensor constructs in S2 cells; assay type: cell-based; settings: FIG. 9; for reporter activity in luciferase assays: S2 cells
Source text: In order to conceptually establish the approach to fuse heterologous ECRs to the Notch^ITS to suppress its proteolytic activation, a sensor protein containing 4 immunoglobulin (Ig) domains of the human CD4 receptor fused to the Notch^ITS was engineered^28 (FIG. 7A).
As a positive control a constitutively active N^ECN-LexA receptor^34 with a constantly exposed S2 cleavage site was included (FIG. 7A,B).
Next, the extracellular CD4 repeats of the sensor protein were replaced with the ECR of an aGPCR, the Latrophilin/ADGRL-homolog CIRL/CG8639 (calcium independent receptor of α-latrotoxin) to enable the NRS to detect the physical dissociation of the NTF-CTF complex within the GAIN domain when appended to the Notch^ITS. Thus, the entire ECR of CIRL (including the GAIN domain, GPS, tethered agonist segment and predicted linker to the 7TM domain) was N-terminally fused to the NRS core (CIRL-NRS-LexA; FIG. 9). […] In order to distinguish between these two possibilities, we mutated the GPS of the sensor at the −2 position of its catalytic triad and replaced the conserved Histidin by an Alanine (FIG. 9) to block GAIN domain self-cleavage and eventual NTF release. […] This set of experiments establishes that the CIRL-NRS-LexA NRS can be used for monitoring the integrity of the NTF-CTF heterodimer clamped by the GAIN domain of CIRL.
as §1
as §2, with “In brief, the supernatant was removed from each well by aspiration and cells were incubated with 200 μl passive lysis buffer on a shaker at room temperature for 30 min.” left out, “formula: […]” for “formula:”
as §3, with “Plasmids used for transfection in S2 cells were: N^ECN-LexA, N^EGF-LexA, ChiN-Test, pChiN1, pChiN2, pChiN3, lexAop-FLuc2, Ac5.1-RLuc, secTEVp, intraTEVp, pBSK-SK+.” left out

[3] = test system: Drosophila melanogaster; experiment: In vivo expression analysis of genomically integrated cirl-NRS sensors (transcriptionally activated mCherry reporter); settings: adult animals; for sensor activity (lexAop-mCherry reporter expression): FIG. 11
Source text: To test the utility of the NRS sensor principle in vivo, an existing genomic engineering platform^13,35 was used to encode NRS sensors in alleles of the adhesion GPCR cirl/CG8639 of Drosophila melanogaster. This places CIRL-NRS expression under the endogenous regulatory control of the cirl locus (FIG. 10A). The NRS design was adapted to generate minigenes for cirl-NRS-LexA, cirl^H>A-NRS-LexA and cirl-NRS^S3-LexA by fusing the genomic fragment encoding the CIRL-ECR to the NRS-LexA cDNA (FIG. 10A,B). The resulting transgenes were inserted in the cirl gene using phiC31-assisted transformation generating fly stocks expressing the different sensors variants from the cirl locus.
Next, the functionality of CIRL-NRS was further studied in anatomical expression analyses.
To control for potential misexpression inherent to the LexA transcriptional reporter, additional cirl-NRS transgenes alternatively terminating in Ga/4 or QF2 transcription factor cassettes were generated an analysed.

effect on reporter activity ([1]; 10 μM DAPT, S2 cells): abolished reporter activity
reporter activity without DAPT vs. with 10 μM DAPT ([1]; CD4-6TEVs-NRS-LexA construct): 3.6 ×
reporter activity without DAPT vs. with 10 μM DAPT ([1]; CD4-6TEVs-NRS-LexA+intraTEVp): 7.0 ×
reporter activity without DAPT vs. with 10 μM DAPT ([1]; CD4-6TEVs-NRS-LexA+secTEVp): 23.4 ×
reporter activity without DAPT vs. with 10 μM DAPT ([1]; Control): 1.1 ×
reporter activity without DAPT vs. with 10 μM DAPT ([1]; N^ECN-LexA construct): 43.7 ×
reporter activity without DAPT vs. with 10 μM DAPT ([1]; N^EGF-LexA construct): 5.8 ×
Molecule: C[C@H](NC(=O)Cc1cc(F)cc(F)c1)C(=O)N[C@H](C(=O)OC(C)(C)C)c1ccccc1 [DAPT]

B1: CIRL-NRS-LexA: entire ECR of CIRL N-terminally fused to the NRS core; full-length NTF release sensor for dmCIRL (protein)
chain: MKLCILLAVVAFVGLSLGETGFPKSLSVLNSRCAHKQSCGVLAATSMFGDPCPGTHKYLEAHYQCISAAQTSTTTNRPSPPPWVLSNGPPIFGNGSGLIHPPGVGAGAPPPPRLPTLPGVVGISGNPGLFNVPPQHTAVTHSTPSSSTTAVGGGRLKGGATSTTTTKHPAGRHDGLPPPPQLHHHHNHHGEDTASPTKPSSKLPAGGNATSPSNTRILTGVGGSGTDDGTLLTTKSSPNRPPGTAASGSVVPGNGSVVRTINNINLNAAGMSGGDDESKLFCGPTHARNLYWNMTRVGDVNVQPCPGGAAGIAKWRCVLMKRIPDSGYDEYDDDISSTTPAPSGGDCLHNSSSCEPPVSMAHKVNQRLRNFEPTWHPATPDLTQCRSLWLNNLEMRVNQRDSSLISIANDMSEVTSSKTLYGGDMLVTTKIIQTVSEKMMHDKETFPDQRQREAMIMELLHCVVKTGSNLLDESQLSSWLDLNPEDQMRVATSLLTGLEYNAFLLADTIIRERSVVQKVKNILLSVRVLETKTIQSSVVFPDSDQWPLSSDRIELPRAALIDNSEGGLVRIVFAAFDRLESILKPSYDHFDLKSSRSYAILSNDSDVNAGEIQQRLRILNSKVISASLGKGRHIQLSQPITLTLKHLKTENVTNPTCVFWNYIDHAWSANGCSLESTNRTHSVCSCNHLTNFAILMDVVDEHQHSLFTMFDGNMRPRIDTAAKHQLRNDFQIHSVRGIKNPGDEDNGEPPANVKYVITGIILVIIALAFFGMVLSTQRKRSGPPKLKALTARQQEVFDLIRDHISQTGMPPTRAEIAQRLGFRSPNAAEEHLKALARKGVIEIVSGASRGIRLLQEEEEGLPLVGRVAAGEPLLAQQHIEGHYQVDPSLFKPNADFLLRVSGMSMKDIGIMDGDLLAVHKTQDVRNGQVVVARIDDEVTVKRLKKQGNKVELLPENSEFKPIVVDLRQQSFTIEGLAVGVIRNGDWLEFPGIRRPAGIPGDLAPPTDVSLGDELHLDGEDVAMAHADALDDFDLDMLGDGDSPGPGFTPHDSAPYGALDMADFEFEQMFTDALGIDEYGGASRYLDPAFLYKVVSSATMDYKDHDGDYKDHDIDYKDDDDKHRST
modifications: Full-length NTF release sensor for dmCIRL used in Example 2
reporter activity in luciferase assays [2]: high activity
luciferase reporter activity, fold difference ([2]; vs. Cirl-NRS^S3-LexA): 23.7 ×
luciferase reporter activity, fold difference ([2]; vs. Cirl^H>A-NRS-LexA): 148.8 ×
sensor activity (lexAop-mCherry reporter expression) [3]: strong expression in the eye, proboscis and leg neurons
expression pattern with matching reporter transgenes ([3]; FIG. 12): strong activation

B2: CIRL^H>A-NRS-LexA: NTF release sensor for dmCIRL, GPS cleavage site mutated (His to Ala at −2) (protein)
chain: B1 chain with H688A
modifications: Full-length NTF release sensor for dmCIRL (GPS cleavage site mutated)
reporter activity in luciferase assays [2]: no reporter activity
sensor activity (lexAop-mCherry reporter expression) [3]: abrogated NRS activation

B3: CIRL-NRS^S3-LexA: NTF release sensor for dmCIRL, S3 cleavage site mutated (disabled γ-secretase recognition) (protein)
chain: B1 chain with V773K
modifications: Full-length NTF release sensor for dmCIRL (S3 cleavage site mutated)
reporter activity in luciferase assays [2]: no reporter activity
sensor activity (lexAop-mCherry reporter expression) [3]: completely abrogated
